The text below walks through data of publication PMC10441386 (bioRxiv, 2023).

Usually koff stands for a measure of how fast the partners let go of each other. A higher koff goes with a short-lived complex. The term kon denotes the second-order rate constant of association. A lower kon goes with slower complex formation. The term Kd denotes the free concentration of one partner at which half of the binding sites on the other are occupied at equilibrium, for simple one-to-one binding. Higher therefore signals lower affinity.

The chains are these.
B1: aC binder peptide (peptide)
peptide: GSFPPWVQ
B2: D-Syn3 (peptide)
chain 1: RRRRRRRC
chain 2: CGSFPPWVQKTEV
modifications: cysteine pairing not given here; also: D- prefix in name, meaning not given here
B3: SYNGAP peptide W7-OHW (peptide)
peptide: RRRRRRGSFPP[Trp(5-OH)]VQQTRV
B4: SYNGAP peptide D-Val8 (peptide)
peptide: RRRRRRGSFPPW[dV]QQTRV
B5: CN2097 (peptide)
chain 1: RRRRRRRC
chain 2: CKNYKKTEV
B6: SYNGAP peptide F4-NH2F (peptide)
peptide: RRRRRRGS[Phe(4-NH2)]PPWVQQTRV
B7: SYNGAP peptide D-Gln9 (peptide)
peptide: RRRRRRGSFPPWV[dQ]QTRV
B8: SYNGAP peptide D-Ser3 (peptide)
peptide: RRRRRRG[dS]FPPWVQQTRV
B9: SYNGAP peptide D-Pro4 (peptide)
peptide: RRRRRRGSF[dP]PWVQQTRV
B10: SYNGAP peptide D-Pro5 (peptide)
peptide: RRRRRRGSFP[dP]WVQQTRV
B11: Syn3* (peptide)
peptide: CGSFPPWVKKTEV
modifications: not fully specified

Non-standard residues stand in square brackets, D forms with d. No end group written: not given here. Trp(5-OH) = N[C@@H](Cc1c[nH]c2ccc(O)cc12)C(=O)O; Phe(4-NH2) = Nc1ccc(C[C@H](N)C(=O)O)cc1

T1 sequence (P78352 309-422): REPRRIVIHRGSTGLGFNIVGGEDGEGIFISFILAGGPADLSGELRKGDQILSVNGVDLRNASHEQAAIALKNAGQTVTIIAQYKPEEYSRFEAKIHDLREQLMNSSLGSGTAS

The first assay addresses T1, PSD-95 PDZ3cα (residues R309-S422) (Homo sapiens, UniProt P78352). The assay is described as follows: SPR.
Conditions: not given
SYNGAP peptide F4H gave a koff of 0.0261 s⁻¹ and an association rate constant (kon) of 216000 M⁻¹ s⁻¹. For SYNGAP peptide V8I, the koff came to 0.00294 s⁻¹. On to SYNGAP peptide V8L, for which the koff came out at 0.00381 s⁻¹.

In another assay the target is PSD-95 PDZ3cα protein (residues R309-S422) (UniProt P78352 309-422). Kind of assay: SPR.
Sequence of PSD-95 PDZ3cα protein (residues R309-S422) (P78352 309-422): as above
Conditions: not given
The molecule B1 displayed a koff of 0.00592 s⁻¹ and a kon of 1000 M⁻¹ s⁻¹. As to B2, the koff was determined as 0.0125 s⁻¹ and the kon was 458000 M⁻¹ s⁻¹. The molecule B3 gave a koff of 0.0106 s⁻¹ and a kon of 24000 M⁻¹ s⁻¹. As for B4, the koff is 0.0459 s⁻¹ and the kon worked out at 2.19e+06 M⁻¹ s⁻¹. As for B5, the koff was 0.00109 s⁻¹ and the kon is 6000 M⁻¹ s⁻¹. The corresponding values for B6 are 0.0104 s⁻¹ and 153000 M⁻¹ s⁻¹. For B7 the same measures were 0.0182 s⁻¹ and 317000 M⁻¹ s⁻¹. The corresponding values for B8 are 0.00493 s⁻¹ and 633000 M⁻¹ s⁻¹. Consider B9, for which the koff came to 0.0116 s⁻¹ and the kon turned out to be 1.88e+06 M⁻¹ s⁻¹. The corresponding values for B10 are 0.0444 s⁻¹ and 1.83e+06 M⁻¹ s⁻¹. In turn, B11 returned a koff of 0.0287 s⁻¹ and an on-rate constant (kon) of 439000 M⁻¹ s⁻¹.

A further assay deals with T1, PSD-95 PDZ3cα (residues R309-S422). Kind of assay: SPR binding of peptides to immobilized PDZ3cα.
Conditions: not given
For orientation: SPR reads the build-up and loss of mass on a sensor chip optically.
As for `CC(C)[C@H](NC(=O)[C@H](CCCNC(=N)N)NC(=O)[C@@H](NC(=O)[C@H](CCC(N)=O)NC(=O)[C@H](CCC(N)=O)NC(=O)[C@@H](NC(=O)[C@H](Cc1c[nH]c2ccccc12)NC(=O)[C@H]1CCCN1C(=O)[C@@H]1CCCN1C(=O)[C@H](Cc1ccccc1)NC(=O)[C@H](CO)NC(=O)CNC(=O)[C@H](CCCNC(=N)N)NC(=O)[C@H](CCCNC(=N)N)NC(=O)[C@H](CCCNC(=N)N)NC(=O)[C@H](CCCNC(=N)N)NC(=O)[C@H](CCCNC(=N)N)NC(=O)[C@@H](N)CCCNC(=N)N)C(C)C)[C@@H](C)O)C(=O)O` [D-Pro5], the dissociation constant Kd was 24.3 nM. Still for that read-out and setting: in the case of “GSFPPWVQ [aC binder, reference compound]” it was 11100 nM.

In turn, RRRRRRGSHPPWVQQTRV [F4H] registered a Kd of 121 nM. RRRRRRGSFPPWLQQTRV [V8L]: the Kd worked out at 58.4 nM. Same read-out and setting: in the case of RRRRRRGSFPPWIQQTRV [V8I] it was 101 nM; in that of `CC(C)[C@H](NC(=O)[C@H](CCCNC(=N)N)NC(=O)[C@@H](NC(=O)[C@H](CCC(N)=O)NC(=O)[C@H](CCC(N)=O)NC(=O)[C@H](NC(=O)[C@H](Cc1c[nH]c2ccccc12)NC(=O)[C@@H]1CCCN1C(=O)[C@@H]1CCCN1C(=O)[C@H](Cc1ccccc1)NC(=O)[C@H](CO)NC(=O)CNC(=O)[C@H](CCCNC(=N)N)NC(=O)[C@H](CCCNC(=N)N)NC(=O)[C@H](CCCNC(=N)N)NC(=O)[C@H](CCCNC(=N)N)NC(=O)[C@H](CCCNC(=N)N)NC(=O)[C@@H](N)CCCNC(=N)N)C(C)C)[C@@H](C)O)C(=O)O` [D-Val8], 20.9 nM.

`CC(C)[C@H](NC(=O)[C@H](CCCNC(=N)N)NC(=O)[C@@H](NC(=O)[C@H](CCC(N)=O)NC(=O)[C@@H](CCC(N)=O)NC(=O)[C@@H](NC(=O)[C@H](Cc1c[nH]c2ccccc12)NC(=O)[C@@H]1CCCN1C(=O)[C@@H]1CCCN1C(=O)[C@H](Cc1ccccc1)NC(=O)[C@H](CO)NC(=O)CNC(=O)[C@H](CCCNC(=N)N)NC(=O)[C@H](CCCNC(=N)N)NC(=O)[C@H](CCCNC(=N)N)NC(=O)[C@H](CCCNC(=N)N)NC(=O)[C@H](CCCNC(=N)N)NC(=O)[C@@H](N)CCCNC(=N)N)C(C)C)[C@@H](C)O)C(=O)O` [D-Gln9]: binding was characterised by a dissociation constant (Kd) of 57.3 nM.

`CC(C)[C@H](NC(=O)[C@H](CCCNC(=N)N)NC(=O)[C@@H](NC(=O)[C@H](CCC(N)=O)NC(=O)[C@H](CCC(N)=O)NC(=O)[C@@H](NC(=O)[C@H](Cc1c[nH]c2ccccc12)NC(=O)[C@@H]1CCCN1C(=O)[C@H]1CCCN1C(=O)[C@H](Cc1ccccc1)NC(=O)[C@H](CO)NC(=O)CNC(=O)[C@H](CCCNC(=N)N)NC(=O)[C@H](CCCNC(=N)N)NC(=O)[C@H](CCCNC(=N)N)NC(=O)[C@H](CCCNC(=N)N)NC(=O)[C@H](CCCNC(=N)N)NC(=O)[C@@H](N)CCCNC(=N)N)C(C)C)[C@@H](C)O)C(=O)O` [D-Pro4] registered a dissociation constant (Kd) of 6.1 nM.

`CC(C)[C@H](NC(=O)[C@H](CCCNC(=N)N)NC(=O)[C@@H](NC(=O)[C@H](CCC(N)=O)NC(=O)[C@H](CCC(N)=O)NC(=O)[C@@H](NC(=O)[C@H](Cc1c[nH]c2ccccc12)NC(=O)[C@@H]1CCCN1C(=O)[C@@H]1CCCN1C(=O)[C@H](Cc1ccccc1)NC(=O)[C@@H](CO)NC(=O)CNC(=O)[C@H](CCCNC(=N)N)NC(=O)[C@H](CCCNC(=N)N)NC(=O)[C@H](CCCNC(=N)N)NC(=O)[C@H](CCCNC(=N)N)NC(=O)[C@H](CCCNC(=N)N)NC(=O)[C@@H](N)CCCNC(=N)N)C(C)C)[C@@H](C)O)C(=O)O` [D-Ser3] returned a Kd of 7.8 nM.

In a further assay the test system is AS mouse model. The assay is described as follows: AS mouse model / animal studies. Conditions: data to be reported elsewhere. It is filed as in vivo.
For the molecule `CC(C)[C@H](NC(=O)[C@H](CCCNC(=N)N)NC(=O)[C@@H](NC(=O)[C@H](CCC(N)=O)NC(=O)[C@H](CCC(N)=O)NC(=O)[C@@H](NC(=O)[C@H](Cc1c[nH]c2ccccc12)NC(=O)[C@@H]1CCCN1C(=O)[C@@H]1CCCN1C(=O)[C@H](Cc1ccccc1)NC(=O)[C@H](CO)NC(=O)CNC(=O)[C@H](CS)NC(=O)[C@H](CS)NC(=O)[C@H](CCCNC(=N)N)NC(=O)[C@H](CCCNC(=N)N)NC(=O)[C@H](CCCNC(=N)N)NC(=O)[C@H](CCCNC(=N)N)NC(=O)[C@H](CCCNC(=N)N)NC(=O)[C@H](CCCNC(=N)N)NC(=O)[C@@H](N)CCCNC(=N)N)C(C)C)[C@@H](C)O)C(=O)O` [SYNGAP], the “effect in AS mouse model / animal studies” value is reported as “did not have the same beneficial effects as Syn3”.
